Patent US20200299396A1

Target: human TNFR1 on the cellular surface of HeLa, HT1080 and Kym-1 cells (human) (UniProt P19438)
Test: cell-based or functional assay

Chain of human TNFR1 on the cellular surface of HeLa, HT1080 and Kym-1 cells (human) (P19438 30-455 limits assumed): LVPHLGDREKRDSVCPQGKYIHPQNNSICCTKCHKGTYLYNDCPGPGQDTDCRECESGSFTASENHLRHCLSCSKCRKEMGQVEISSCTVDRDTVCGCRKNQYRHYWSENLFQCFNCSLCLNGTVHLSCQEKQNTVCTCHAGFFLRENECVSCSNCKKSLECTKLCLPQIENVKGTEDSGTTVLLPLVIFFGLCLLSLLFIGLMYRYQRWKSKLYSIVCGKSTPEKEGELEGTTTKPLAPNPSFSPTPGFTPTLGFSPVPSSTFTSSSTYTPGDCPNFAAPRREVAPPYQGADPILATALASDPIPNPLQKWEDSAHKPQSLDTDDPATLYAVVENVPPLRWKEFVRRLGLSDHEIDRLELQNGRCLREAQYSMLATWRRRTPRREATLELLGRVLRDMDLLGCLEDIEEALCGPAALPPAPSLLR

Substance: ATROSAB (antibody)
- IC50, Cell death induction [nM] (Kym-1 cells, TNF-induced): 64.4 nM
- IC50, IL-6 [nM] (IL-6 release from HeLa cells, 0.1 nM TNF): 165 nM
- IC50, IL-8 [nM] (IL-8 release from HT1080 cells, 0.1 nM TNF): 84.1 nM
